In the Immune Epitope Database (IEDB) one finds Kd data, which are given here for 34 sequences.

Bounds are passed on as bounds.

Among the targets are HLA-A*31:01; HLA-A*68:01; HLA-A*11:01; HLA-A*33:01; HLA-A*03:01.
Assay in all cases: IEDB peptide-MHC binding, purified MHC/competitive/radioactivity; filed as Kd, often an IC50 or EC50 that approximates it; ≥ and ≤ were set here for values at or beyond the usual limits of such assays
Setting [1] is: source organism: SARS coronavirus Tor2.
[2] abbreviates: source organism: Vaccinia virus WR.
[3] abbreviates: source organism: Dengue virus 2 Jamaica/1409/1983.
Where [4] appears, read: source organism: Dengue virus 3 Martinique/1243/1999.
Where [5] appears, read: source organism: Dengue virus 1 Brazil/97-11/1997.
Setting [6] is: source organism: Dengue virus 4 Philippines/H241/1956.
Where [7] appears, read: source organism: Vaccinia virus Copenhagen.
Setting [8] is: source organism: Dengue virus 4 Dominica/814669/1981.
[9] abbreviates: source organism: Mammarenavirus guanaritoense.

As for GVVFLHVTY, the Kd in the experiment with HLA-A*31:01 (setting [1]) is 15300 nM; with HLA-A*68:01 (setting [1]) it was no less than 60600 nM; in the experiment with HLA-A*11:01 (setting [1]) it was 3400 nM; with HLA-A*33:01 (setting [1]) it was no less than 77700 nM; with HLA-A*03:01 (setting [1]) it was 8170 nM.
As for HAKYMVTDK, the Kd came to 5060 nM in the experiment with HLA-A*31:01 (setting [2]); 180 nM with HLA-A*68:01 (setting [2]); 5810 nM with HLA-A*11:01 (setting [2]); 14300 nM with HLA-A*33:01 (setting [2]); 452 nM with HLA-A*03:01 (setting [2]).
For HILHAYCGIK the same measures were 13500 nM, 2740 nM, 1390 nM, no less than 70000 nM and 229 nM.
As for IGQMFETTMR, the Kd in the experiment with HLA-A*33:01 (setting [3]) was 1630 nM.
Consider IIKLPTLFGR, for which the Kd with HLA-A*31:01 (setting [2]) worked out at 0.251 nM; with HLA-A*68:01 (setting [2]), 69.6 nM; in the experiment with HLA-A*11:01 (setting [2]) it was 137 nM; in the experiment with HLA-A*33:01 (setting [2]) it was 17.3 nM; in the experiment with HLA-A*03:01 (setting [2]), 89.2 nM.
On the same counts, the results for IINFTISMR are 2.23 nM, 3.79 nM, 49.2 nM, 98.1 nM and 41.3 nM.
On the same counts, the results for ILRNYLRLY are 8270 nM, no less than 32200 nM, 4540 nM, 3020 nM and 648 nM.
On the same counts, the results for ILSKWHTSAR are 126 nM, 844 nM, 3550 nM, 399 nM and 36.3 nM.
Take ISNMLSIINK: the Kd in the experiment with HLA-A*11:01 (setting [4]) was found to be 113 nM; with HLA-A*03:01 (setting [4]), 142 nM.
As for ITAKETLYR, the Kd with HLA-A*31:01 (setting [1]) was determined as 193 nM; in the experiment with HLA-A*68:01 (setting [1]) it was 15.5 nM; with HLA-A*11:01 (setting [1]), 18.3 nM; with HLA-A*33:01 (setting [1]) it was 1080 nM; with HLA-A*03:01 (setting [1]), 131 nM.
In the case of KATTQIAPK, the Kd with HLA-A*31:01 (setting [2]) is 86.2 nM; with HLA-A*68:01 (setting [2]) it was 7050 nM; with HLA-A*11:01 (setting [2]), 4.81 nM; in the experiment with HLA-A*33:01 (setting [2]), no less than 39100 nM; with HLA-A*03:01 (setting [2]), 46 nM.
For KFNDYRKQMY the same measures were 196 nM, no less than 32400 nM, no less than 22400 nM, no less than 59300 nM and 4820 nM.
For KIMSIGFEAR the same measures were 6.06 nM, 88.1 nM, 36.2 nM, 562 nM and 175 nM.
On the same counts, the results for KINSVKYYGR are 30.2 nM, 5340 nM, 135 nM, 2420 nM and 1870 nM.
On to KIPIYSHTER, for which the Kd with HLA-A*31:01 (setting [2]) is 25.8 nM; with HLA-A*68:01 (setting [2]) it was 1530 nM; with HLA-A*11:01 (setting [2]) it was 1140 nM; in the experiment with HLA-A*33:01 (setting [2]), 1190 nM; in the experiment with HLA-A*03:01 (setting [2]) it was 1060 nM.
As to KLGEFGKAK, the Kd with HLA-A*03:01 (setting [3]) came out at 22.1 nM.
KLMEEYLRR: the Kd with HLA-A*31:01 (setting [2]) is 5.59 nM; in the experiment with HLA-A*68:01 (setting [2]), 1910 nM; with HLA-A*11:01 (setting [2]), 9.83 nM; in the experiment with HLA-A*33:01 (setting [2]) it was no less than 22000 nM; with HLA-A*03:01 (setting [2]), 11.4 nM.
Consider KSFNHVLKRK, for which the Kd is 67.9 nM in the experiment with HLA-A*31:01 (setting [1]); 1570 nM in the experiment with HLA-A*68:01 (setting [1]); 6.18 nM in the experiment with HLA-A*11:01 (setting [1]); no less than 70000 nM in the experiment with HLA-A*33:01 (setting [1]); 1.01 nM with HLA-A*03:01 (setting [1]).
KVIDLGCGR: the Kd with HLA-A*31:01 (setting [5]) stood at 9210 nM.
For the sequence MILMKMKKK, in the experiment with HLA-A*03:01 (setting [6]), the Kd stood at 86.3 nM.
In the case of MLIYSMWGK, the Kd in the experiment with HLA-A*31:01 (setting [7]) was determined as 459 nM; in the experiment with HLA-A*11:01 (setting [7]) it was 2.63 nM; with HLA-A*33:01 (setting [7]), 2040 nM; with HLA-A*03:01 (setting [7]) it was 10.6 nM.
Take MWTLMYFHR: the Kd in the experiment with HLA-A*31:01 (setting [3]) amounted to 7.83 nM; with HLA-A*33:01 (setting [3]), 1.51 nM.
In the case of NSALTLHWFR, the figures for the Kd with HLA-A*31:01 (setting [8]), in the experiment with HLA-A*68:01 (setting [8]) and with HLA-A*33:01 (setting [8]) were 3.53 nM, 1.75 nM and 4.07 nM, respectively.
On to PMFAVGLLFR, for which the dissociation constant (Kd) in the experiment with HLA-A*33:01 (setting [5]) was 91.1 nM.
Take QVIAVEPGK: the Kd in the experiment with HLA-A*11:01 (setting [5]) stood at 781 nM.
With RQDLLVTFK, in the experiment with HLA-A*11:01 (setting [5]), the Kd is 197 nM.
As for SILASSLLR, the Kd with HLA-A*11:01 (setting [4]) came to 125 nM; with HLA-A*03:01 (setting [4]), 722 nM.
On to TTIFAGHLK, for which the results for the Kd with HLA-A*68:01 (setting [5]) and with HLA-A*11:01 (setting [5]) were 25.4 nM and 30.7 nM, respectively.
Turning to TTSLFLHLV, the figures for the Kd in the experiment with HLA-A*33:01 (setting [9]) and in the experiment with HLA-A*03:01 (setting [9]) were 2260 nM and 15300 nM, respectively.
As to TYLALIATFK, the Kd with HLA-A*33:01 (setting [4]) stood at 69.9 nM.
On to TYSDPLALR, for which the figures for the Kd with HLA-A*31:01 (setting [5]) and with HLA-A*33:01 (setting [5]) were no less than 77900 nM and 9.22 nM, respectively.
As for VVKDDPDHYK, the Kd with HLA-A*31:01 (setting [2]) is no less than 40300 nM; with HLA-A*68:01 (setting [2]), no less than 70200 nM; with HLA-A*33:01 (setting [2]) it was no less than 70000 nM.
Turning to WSLMYFHRR, the Kd in the experiment with HLA-A*31:01 (setting [4]) amounted to 0.548 nM; with HLA-A*33:01 (setting [4]) it was 0.235 nM.
For YVLGIFLRK, the values for the Kd with HLA-A*11:01 (setting [6]) and with HLA-A*03:01 (setting [6]) were 9.88 nM and 1.22 nM, respectively.
